Data: paper PMC7081346, “Identification and characterization of N9-methyltransferase involved in converting caffeine into non-stimulatory theacrine in tea” (Nature Communications, 2020)

How the values were obtained:
CkTbS [1] = biological target: T1, CkTbS (Camellia sinensis, UniProt A0A6C0WX00, S270C); experiment: in vitro methylation assay, HPLC; format: biochemical; conditions: SAM as methyl donor; printed as C270S, but CkTbS residue 270 is Ser
T1 construct: gene TBS; full-length, recombinant from E. coli BL21(DE3); N-terminal His6-SUMO tag cleaved with ULP1

CkTbS [2] = biological target: T2, CkTbS (Camellia sinensis, UniProt A0A6C0WX00, T241I); experiment: in vitro methylation assay, HPLC; format: biochemical; conditions: SAM as methyl donor
T2 construct: gene TBS; full-length, recombinant from E. coli BL21(DE3); N-terminal His6-SUMO tag cleaved with ULP1

CkTbS [3] = biological target: T3, CkTbS (Camellia sinensis, UniProt A0A6C0WX00, H226R/T241I/S270C); experiment: in vitro methylation assay, HPLC; format: biochemical; conditions: SAM as methyl donor; triple mutant, composition from the three variable residues
T3 construct: gene TBS; full-length, recombinant from E. coli BL21(DE3); N-terminal His6-SUMO tag cleaved with ULP1

[4] = substrate: Cn1c(=O)c2c([nH]c(=O)n2C)n(C)c1=O; experiment: theacrine formation by HPLC-MS; format: biochemical, Camellia sinensis; conditions: 1.5 mM SAM, 200 μM MgCl2, 100 mM Tris-HCl pH 7.0, 27 °C
purified protein = substrate: C[S+](CC[C@H](N)C(=O)O)C[C@H]1O[C@@H](n2cnc3c(N)ncnc32)[C@H](O)[C@@H]1O; experiment: purified protein; conditions: 50 μM 1,3,7-trimethyluric acid, 200 μM MgCl2, 100 mM Tris-HCl pH 7.0, 27 °C
[5] = substrate: Cn1cnc2[nH]c(=O)[nH]c(=O)c21; experiment: theobromine formation by HPLC-MS; format: biochemical, Camellia sinensis; conditions: 1.5 mM SAM, 200 μM MgCl2, 100 mM Tris-HCl pH 7.0, 27 °C
[6] = biological target: the molecule itself; experiment: crystal structure; CkTcS (eight N-terminal residues truncated) mixed with 2 mM SAH and 5 mM 1,3,7-trimethyluric acid; hanging drop, 4 °C, 0.1 M HEPES (pH 7.5), 1 M sodium citrate; 3.14 Å; homodimer in the crystal lattice

T2 sequence (A0A6C0WX00 whole entry T241I): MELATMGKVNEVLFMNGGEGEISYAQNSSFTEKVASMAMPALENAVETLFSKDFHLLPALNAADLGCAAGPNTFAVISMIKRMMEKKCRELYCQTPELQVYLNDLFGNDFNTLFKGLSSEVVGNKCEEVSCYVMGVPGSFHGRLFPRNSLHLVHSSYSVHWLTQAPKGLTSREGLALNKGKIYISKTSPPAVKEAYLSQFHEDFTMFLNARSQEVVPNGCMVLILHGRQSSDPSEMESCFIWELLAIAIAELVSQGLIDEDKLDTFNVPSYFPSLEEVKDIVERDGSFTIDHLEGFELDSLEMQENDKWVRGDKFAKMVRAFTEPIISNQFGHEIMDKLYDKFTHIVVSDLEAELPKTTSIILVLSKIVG
T1 sequence (A0A6C0WX00 whole entry S270C): as the sequence (A0A6C0WX00 whole entry T241I) above, with I241T, S270C counted along it
T3 sequence (A0A6C0WX00 whole entry H226R/T241I/S270C): as the sequence (A0A6C0WX00 whole entry T241I) above, with H226R, S270C counted along it

**Q.** With `Cn1c(=O)c2c([nH]c(=O)n2C)n(C)c1=O` [compound 5, 1,3,7-trimethyluric acid] as the molecule, how does the “in vitro methylation assay, HPLC” value (CkTbS [1]) read?
**A.** Single mutation of T241I or C270S on CkTbS led to a moderate increase

**Q.** And the “in vitro methylation assay, HPLC” value (CkTbS [2])?
**A.** Single mutation of T241I or C270S on CkTbS led to a moderate increase

**Q.** What about the “in vitro methylation assay, HPLC” value (CkTbS [3]) of the same molecule?
**A.** the double and triple mutations further increased the N-methyltransferase activity

B1: CkTbS (Camellia sinensis var. assamica) (protein)
chain: MELATMGKVNEVLFMNGGEGEISYAQNSSFTEKVASMAMPALENAVETLFSKDFHLLPALNAADLGCAAGPNTFAVISMIKRMMEKKCRELYCQTPELQVYLNDLFGNDFNTLFKGLSSEVVGNKCEEVSCYVMGVPGSFHGRLFPRNSLHLVHSSYSVHWLTQAPKGLTSREGLALNKGKIYISKTSPPAVKEAYLSQFHEDFTMFLNARSQEVVPNGCMVLILHGRQSSDPSEMESCFTWELLAIAIAELVSQGLIDEDKLDTFNVPSYFPSLEEVKDIVERDGSFTIDHLEGFELDSLEMQENDKWVRGDKFAKMVRAFTEPIISNQFGHEIMDKLYDKFTHIVVSDLEAELPKTTSIILVLSKIVG
notes: full-length, recombinant from E. coli BL21(DE3); N-terminal His6-SUMO tag cleaved with ULP1
**Q.** Which Km [4] does the source give for B1 here?
**A.** 162.20 ± 27.80 µM

**Q.** And the kcat [4]?
**A.** 0.18 ± 0.01 ×10^-3 s^-1

B2: CkTcS (Camellia sinensis var. assamica) (protein)
chain: MELATRGKVKEVLFMNTGEGESSYVQNSSFTEKVASMAMPALENAVETLFSKDFHLFQAINAADLGCATGPNTFAVISTIKRMMEKKCRELNCQTLELQVYMNDLFGNDFNTLFKGLSSKVIGNKCEEVSCYVMGVPGSFHGRLFPRNSLHLVHSSYSVHWLTQAPKGLTSREGLALNKGRIYISKTSPPVVREAYLSQFHEDFTMFLNARSQEVVPNGCMVLILRGRQSSDPSDMQSCFIWELLAIAIAELVSQGLIDEDKLDTFNIPCYFPSLEEVKDIVERDGSFTIDHMEGFELDSLQMQENDKWVRGEKFAKIVRAFTEPIISNQFGHEIMDKLYDKFTHIVVSDLEAKLPKTTSIILVLSKIVG
notes: full-length, recombinant from E. coli BL21(DE3); N-terminal His6-SUMO tag cleaved with ULP1; homodimer
**Q.** With B2 as the molecule, how does the Km (purified protein) read?
**A.** 109.50 µM

**Q.** What about the Km [4] of the same molecule?
**A.** 4.68 ± 0.72 µM

**Q.** And the kcat [4]?
**A.** 11.42 ± 0.37 ×10^-3 s^-1

**Q.** What about the Km [5] of the same molecule?
**A.** 226.20 ± 33.95 µM

**Q.** And the kcat [5]?
**A.** 6.07 ± 0.21 ×10^-3 s^-1

B3: theacrine synthase CkTcS (N9-methyltransferase), N-terminal eight residues truncated (enzyme, Camellia assamica var. kucha (Kucha), UniProt A0A6C0WW36 9-370, looked up)
chain: VKEVLFMNTGEGESSYVQNSSFTEKVASMAMPALENAVETLFSKDFHLFQAINAADLGCATGPNTFAVISTIKRMMEKKCRELNCQTLELQVYMNDLFGNDFNTLFKGLSSKVIGNKCEEVSCYVMGVPGSFHGRLFPRNSLHLVHSSYSVHWLTQAPKGLTSREGLALNKGRIYISKTSPPVVREAYLSQFHEDFTMFLNARSQEVVPNGCMVLILRGRQSSDPSDMQSCFIWELLAIAIAELVSQGLIDEDKLDTFNIPCYFPSLEEVKDIVERDGSFTIDHMEGFELDSLQMQENDKWVRGEKFAKIVRAFTEPIISNQFGHEIMDKLYDKFTHIVVSDLEAKLPKTTSIILVLSKIVG
notes: CkTcS, theacrine synthase (N9-methyltransferase) of Camellia assamica var. kucha (Kucha); for crystallization eight residues on the N-terminal were truncated; source: E. coli BL21(DE3), purified (Nickel column, ion-exchange, size-exclusion); not shown: His6, N-terminal, cleaved; SUMO, N-terminal, cleaved
**Q.** Which “stoichiometry N” value [6] does the source give for B3 here?
**A.** 2

B4: CkCS (Camellia sinensis var. assamica) (protein)
chain: MELATREKVNEVLFMNRGEGESSYAQNSSFTQQVASMAQPALENAVETLFSKDFHLQALNAADLGCAAGPNTFAVISTIKRMMEKKCRELNCQTLELQVYLNDLFGNDFNTLFKGLSSEVIGNKCEEVPCYVMGVPGSFHGRLFPRNSLHLVYSSYSVHWLTQAPKGLTSREGLALNKGKIYISKTSPPVVREAYLSQFHEDFTMFLNYRSQEMVPNGCMVLILRGRQCFDPSDMQSCFTWELLALAIAELVSQGLIDEDKLDTFNIPSYFASLEEVKDIVERDGSFTIDHIEGFDLDSVEMQENDKWVRGEKFTKVVRAFSEPIISSQFGHEIMDKLYDKFTHIVVSDLEAKLPKTTSIILVLSKIVG
notes: as for B1
**Q.** What does the source list for B4?
**A.** Km [4]: 71.49 ± 15.60 µM; kcat [4]: 0.12 ± 0.01 ×10^-3 s^-1
